Assay results from the RNAGym collection of RNA variant scans (doi:10.1093/nar/gkz1192).

B1: CPEB3 Ribozyme (parent)
chain: UAACAGGGGGCCACAGCAGAAGCGUUCACGUCGCAGCCCCUGUCAGAUUCUGGUGAAUCUGCGAAUUCUGCUGUAUAUCUC

Variants of: B1
Assay: self-cleavage, relative activity (ratio to wild type); higher = more cleavage; in vitro, sequencing
In short: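 Barcoded CPEB3 ribozyme mutants, produced by rounds of error-prone PCR, self-cleaved while being transcribed with T7 RNA polymerase for 5 hours at 37°C and during a subsequent 15 min DNase I step before EDTA was added. Sequencing of template-switched cDNA on Illumina gave cleaved and total reads, and DNA sequencing assigned barcodes to variants. Each variant's relative activity is its cleaved/total read fraction divided by the unmutated ribozyme's fraction, averaged across three batches. A variant needed a minimum of 5 reads.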

Variant	self-cleavage
G55C G70C	0.17
A56C U78C	0.49
A56U A75G	0.54
A56U A75U	0.79
G55A G61A	0.39
A56U U60A	0.3
A56U U60C	0.27
A56U U60G	0.24
A56G U80G	0.99
A56G U80C	0.84
A56G U80A	0.92
A56G U69C	0.43
A56G U69G	0.54
A56G U69A	0.5
G55A A65U	0.27
A57G C71U	0.32
A57U U69G	0.44
A57U U69C	0.3
A57U U69A	0.4
A56U C68U	0.55
G55U A56U	0.7
G55A U69C	0.28
G55A U69A	0.39
G55A U69G	0.34

Variant	self-cleavage
G55U C81U	0.6
A57C U80C	0.67
A56U U58A	0.31
A56U U58G	0.18
A56U U58C	0.3
G55C U74G	1.13
A57U G70U	0.19
A57U G70A	0.38
A56U A77G	0.71
A56U A77U	0.73
A56U A77C	0.62
U54G U76C	0.98
G55A U66C	0.22
A57C U60A	0.14
A56G C79G	1.16
A56G C79A	1.18
A56U G70U	0.21
A56U G70A	0.35
A57U A65G	0.22
G55A U60A	0.44
G55A U60C	0.25
A56C A75G	0.29
A56G U72G	0.63
A56G U72A	0.64

Variant	self-cleavage
A56G U72C	0.93
G55A U80C	1.09
G55A U80A	1.15
U58A A65U	0.13
U58A A65G	0.17
G55A A75G	0.4
A56G A77C	0.79
A56G A77U	0.99
A56G A77G	0.77
G55U U69C	0.48
A57C A64G	0.34
A57C A64U	0.44
A56G U58G	0.22
A56G U58C	0.38
A56G U58A	0.32
A57U U58A	0.3
A57U U58C	0.18
A57U U58G	0.1
G55U U60C	0.27
G55U U60A	0.27
A57G A65G	0.37
A57G A65C	0.15
A57G A65U	0.32
A57G U58A	0.28

Variant	self-cleavage
A57G U58G	0.22
A57G U58C	0.33
A56C A65G	0.22
U54G U80C	0.67
A57G C79A	0.73
A57G C79U	1.1
G55C A64G	0.72
G55C A64U	0.23
A57C A65G	0.17
A56U U78C	0.61
A56U U78G	0.58
A56U U78A	0.95
A57G C62U	0.33
A57U A75G	0.69
A57U A75U	1.08
U58A C59A	0.25
G55C A57G	0.37
A57U U67A	0.38
A57U U67C	0.22
A57U A77U	1.01
A57U A77G	0.76
A56C U58C	0.14
A56U U76G	0.89
A56U U76C	0.8

Variant	self-cleavage
A56U U76A	0.84
A57C A77G	0.45
A56C U60C	0.18
U58A	0.41
A56G U76A	1.07
A56G U76C	0.85
A56C A64U	0.18
A56C A64G	0.49
G55A A57U	0.54
G55A A57G	0.46
A57G U67C	0.35
A57G U67G	0.38
A57G U67A	0.45
U54G U69C	0.37
U54G U69A	0.62
U58A A75U	0.29
U58A A75G	0.46
A56U C62U	0.21
U54G U74C	0.92
U58A C62U	0.23
G55U C62U	0.23
A57U U78G	0.75
A57U U78C	0.68
A57U U78A	1.21

Variant	self-cleavage
A57G A77U	0.9
A57G A77G	0.87
A57U C59U	0.21
A57G A64G	0.81
A57G A64U	0.36
A56G G73U	1.15
A56G G73C	1.26
A57U U80A	0.55
A57U U80C	0.92
A56G A65U	0.25
A56G A65C	0.15
A56G A65G	0.32
A57G U80G	1.12
A57G U80A	1.06
A57G U80C	1
A56U A64U	0.28
A56U A64G	0.51
A56U A64C	0.19
A56G U67A	0.46
A56G U67C	0.3
A56G U74C	1.12
A56G U74A	1.11
A57G G73A	1.25
A57G G73U	1.15

Variant	self-cleavage
A57G A75U	1.01
A57G A75G	0.74
A56G C68A	0.32
A56G C68U	0.77
G55U G61A	0.6
A57G U66C	0.4
A57G U66A	0.37
A57G U66G	0.53
A57G C59A	0.2
A57G C59U	0.83
A57G C59G	0.21
A56C U72C	0.52
A56C U72A	0.18
A56U U72G	0.5
A56U U72C	0.81
A56U U72A	0.46
A56G A75G	0.64
A56G A75C	1.12
A56G A75U	0.95
U54G U67A	0.57
U54G U67C	0.32
U54G U67G	0.14
G55U U58A	0.25
